Numbering of substitutions follows the chain as printed. Numbers in names are those of the source.
T1: La protein (Lupus autoantigen), native, in lysates of fusing human osteoclasts (human, UniProt P05455 1-408, limits assumed)
T1 construct: Endogenous La from monocyte-derived human osteoclasts 3 days post-RANKL; also called native La; SSB
T1 sequence: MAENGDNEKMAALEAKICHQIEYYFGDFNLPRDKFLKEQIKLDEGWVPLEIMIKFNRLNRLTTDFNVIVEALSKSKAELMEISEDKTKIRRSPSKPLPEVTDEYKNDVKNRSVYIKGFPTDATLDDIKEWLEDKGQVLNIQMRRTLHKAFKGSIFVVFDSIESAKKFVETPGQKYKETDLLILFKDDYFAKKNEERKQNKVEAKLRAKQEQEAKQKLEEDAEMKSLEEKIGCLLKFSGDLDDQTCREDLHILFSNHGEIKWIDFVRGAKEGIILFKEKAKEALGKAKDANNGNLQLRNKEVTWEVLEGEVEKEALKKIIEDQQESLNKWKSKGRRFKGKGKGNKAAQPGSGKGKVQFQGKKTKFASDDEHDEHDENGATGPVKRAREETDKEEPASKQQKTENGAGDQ

B1: Annexin A1 (Anx A1), native, in fusing human osteoclasts (other, UniProt P04083 2-346, looked up)
chain: AMVSEFLKQAWFIENEEQEYVQTVKSSKGGPGSAVSPYPTFNPSSDVAALHKAIMVKGVDEATIIDILTKRNNAQRQQIKAAYLQETGKPLDETLKKALTGHLEEVVLALLKTPAQFDADELRAAMKGLGTDEDTLIEILASRTNKEIRDINRVYREELKRDLAKDITSDTSGDFRNALLSLAKGDRSEDFGVNEDLADSDARALYEAGERRKGTDVNVFNTILTTRSYPQLRRVFQKYTKYSKHDMNKVLDLELKGDIEKCLTAIVKCATSKPAFFAEKLHQAMKGVGTRHKALIRIMVSRSEIDMNDIKAFYQKMYGISLCQAILDETKGDYEKILVALCGGN
B2: Annexin A4 (Anx A4), native, in fusing human osteoclasts (other, UniProt P09525 2-319, looked up)
chain: ATKGGTVKAASGFNAMEDAQTLRKAMKGLGTDEDAIISVLAYRNTAQRQEIRTAYKSTIGRDLIDDLKSELSGNFEQVIVGMMTPTVLYDVQELRRAMKGAGTDEGCLIEILASRTPEEIRRISQTYQQQYGRSLEDDIRSDTSFMFQRVLVSLSAGGRDEGNYLDDALVRQDAQDLYEAGEKKWGTDEVKFLTVLCSRNRNHLLHVFDEYKRISQKDIEQSIKSETSGSFEDALLAIVKCMRNKSAYFAEKLYKSMKGLGTDDNTLIRVMVSRAEIDMLDIRAHFKRLYGKSLYSFIKGDTSGDYRKVLLVLCGGDD
B3: La 1-375: amino acids 1-375 of human La lacking NLS; recombinant protein or overexpressed from FLAG plasmid (protein, listed as Homo sapiens)
chain: MAENGDNEKMAALEAKICHQIEYYFGDFNLPRDKFLKEQIKLDEGWVPLEIMIKFNRLNRLTTDFNVIVEALSKSKAELMEISEDKTKIRRSPSKPLPEVTDEYKNDVKNRSVYIKGFPTDATLDDIKEWLEDKGQVLNIQMRRTLHKAFKGSIFVVFDSIESAKKFVETPGQKYKETDLLILFKDDYFAKKNEERKQNKVEAKLRAKQEQEAKQKLEEDAEMKSLEEKIGCLLKFSGDLDDQTCREDLHILFSNHGEIKWIDFVRGAKEGIILFKEKAKEALGKAKDANNGNLQLRNKEVTWEVLEGEVEKEALKKIIEDQQESLNKWKSKGRRFKGKGKGNKAAQPGSGKGKVQFQGKKTKFASDDEHDEHDE
B4: D371A,D374A La: uncleavable mutant of FL La, caspase cleavage sites disrupted, overexpressed from plasmid (protein, UniProt P05455 1-408, looked up, variant D371A D374A)
chain: T1 sequence with D371A, D374A
modifications: full-length
notes: uncleavable mutant of FL La, caspase cleavage sites disrupted, overexpressed from plasmid
B5: La 1-375 RNAΔ: La 1-375 with three point mutations impairing La domain RNA binding (protein, UniProt P05455 1-375, looked up, variant Q20A Y24A D33I)
chain: B3 chain with Q20A, Y24A, D33I

How the values were obtained:
[1] = target: T1, La protein (Lupus autoantigen), native, …; test: co-immunoprecipitation with α-La on magnetic beads from DTSSP-crosslinked osteoclast lysates, immunoblot
[2] = system: RAW 264.7 derived, murine osteoclasts; test: Osteoclast fusion assay in RAW 264.7 derived osteoclasts; assay type: cell-based; details: overexpression from expression plasmid vs empty plasmid
Procedure: Osteoclasts: Elutriated monocytes from healthy donors were obtained. Cells were plated at 2.9×10^5 per cm^2 in 35 mm dishes with polymer coverslip bottoms (Ibidi #81156) for imaging or 35 mm or 10 cm dishes for biochemical experiments in complete media [α-MEM supplemented with 10% Fetal Bovine Serum (FBS) and penicillin-streptomycin-L-glutamine (Gibco Invitrogene #12571063; #26140079 and #10378016, respectively)]. Monocytes were differentiated to M2 macrophages in the presence of 100 ng/ml M-CSF for 6 days and then differentiated with 100 ng/ml M-CSF and 100 ng/ml RANKL for 3 days unless indicated otherwise. RAW 264.7 cells (ATCC, Manassas, VA, #TIB-71) were maintained in DMEM supplemented with 10% FBS to a maximum of 8 passages. […]
Fusion Assays: Osteoclast fusion in the culture systems was evaluated by fluorescence microscopy (Verma et al., J Biol Chem 293, 254-270, doi:10.1074/jbc.M117.809681 (2018)). […] Osteoclast fusion efficiency was evaluated as the number of fusion events between cells in these images, as described previously. Since regardless of the sequence of fusion events, the number of cell-to-cell fusion events required to generate syncytium with N nuclei is always equal to N−1, the fusion number index was calculated as Σ(Ni−1)=Ntotal−Nsyn, where Ni=the number of nuclei in individual syncytia and Nsyn=the total number of syncytia. […]

[3] = system: human, monocyte-derived osteoclasts; test: Bone resorption assay (fluoresceinamine-labeled chondroitin sulfate on calcium phosphate-coated plates); assay type: cell-based; details: for bone resorption: overexpression, normalized to empty plasmid
Procedure: There is a relationship between osteoclast fusion and bone resorption (Makris and Saffar, Arch Oral Biol 27, 965-969, doi:10.1016/0003-9969(82)90104-2 (1982); Piper et al., Anat Embryol (Berl) 186, 291-299, doi:10.1007/BF00185977 (1992); Moller et al., Int J Mol Sci 21, doi:10.3390/ijms21176368 (2020)). It was hypothesized that by regulating osteoclast size, La also regulates bone resorption. This hypothesis was evaluated by differentiating osteoclasts on fluoresceinated calcium phosphate, a biomimetic of bone, and assessed osteoclast-dependent bone resorption by the release of fluorescein into the media (FIG. 5A). […] Overexpression of La 1-375 promoted bone resorption, while the uncleavable La mutant, D371,374A, had no effect (FIG. 5B).
Bone Resorption: Bone resorption was evaluated using bone resorption assay kits from Cosmo Bio USA according to the manufacturer's instructions. Briefly, fluoresceinamine-labeled chondroitin sulfate was used to label 24-well, calcium phosphate-coated plates. Human, monocyte-derived osteoclasts were differentiated as described above, using alpha MEM without phenol red. Media were collected at 4-5 days post RANKL addition, and fluorescence intensity within the media was evaluated as recommended by the manufacture.

[4] = system: human monocyte-derived osteoclasts; test: Osteoclast fusion assay (number of fusion events, fluorescence microscopy); assay type: cell-based; details: for osteoclast fusion (fusion events in syncytia with 3+ nuclei): overexpression from expression plasmid vs empty plasmid, human osteoclasts; for formation of multinucleated syncytia (osteoclast fusion): recombinant protein ~40 nM added end of day 2 post-RANKL, overnight
Procedure: Osteoclasts: Elutriated monocytes from healthy donors were obtained. Cells were plated at 2.9×10^5 per cm^2 in 35 mm dishes with polymer coverslip bottoms (Ibidi #81156) for imaging or 35 mm or 10 cm dishes for biochemical experiments in complete media [α-MEM supplemented with 10% Fetal Bovine Serum (FBS) and penicillin-streptomycin-L-glutamine (Gibco Invitrogene #12571063; #26140079 and #10378016, respectively)]. Monocytes were differentiated to M2 macrophages in the presence of 100 ng/ml M-CSF for 6 days and then differentiated with 100 ng/ml M-CSF and 100 ng/ml RANKL for 3 days unless indicated otherwise. RAW 264.7 cells (ATCC, Manassas, VA, #TIB-71) were maintained in DMEM supplemented with 10% FBS to a maximum of 8 passages. RAW 264.7 cells were differentiated to osteoclasts in the presence of 100 ng/ml murine RANKL for 5 days. To separate unfused mononucleated and fused, multinucleated RAW 264.7 cells into separate fractions, advantage was taken of the much stronger adherence of multinucleated cells to culture dish plastic. After washing in PBS, mixed RAW cultures (following RANKL differentiation) were left in Ca^2+ and Mg^2+ free PBS for 10 minutes at room temperature. Culture dishes were then tapped on the lab bench and a large portion of unfused, mononucleated RAW cells were released, and these released cells were collected via centrifugation. This process was repeated 2-4 times until dishes were left with a population of primarily fused, multinucleated syncytia. Mononucleated and multinucleated cell fractions were then processed for biochemical or imaging experiments as described below.
Constructs & Recombinant proteins & Transfection: Recombinant La 1-408, 1-375, 1-375 Q20A_Y24A_D33I, 1-187 and 188-375 were amplified with primers designed with overlapping sequences and inserted between NdeI/HindIII in the V78 pET28A E. coli expression vector, adding to each a N-terminal 6×his affinity tag. La 1-408 was expressed as a recombinant protein in E. coli and purified using IMAC columns by SD Biosciences (San Diego, CA). The remaining constructs were transformed into BL2 (DE3) chemically competent E. coli (Thermo Fisher Scientific) and protein expression was induced with IPTG. Cells were lysed with Bugbuster (Sigma), and 6×his-La proteins were affinity purified using HisPur Cobalt Spin columns (Thermo Fisher Scientific), each according to the manufacturer's instructions. Endotoxin contaminates were depleted from affinity purified 6×his-La proteins using Pierce high-capacity endotoxin removal columns (Thermo Fisher Scientific), according to the manufacturer's instructions. Proteins were then sterile filtered, aliquoted and kept at −80 C.
Plasmids were introduced into primary osteoclasts at day 2 of RANKL stimulation via jetPRIME (Polyplus Transfection). FLAG-La 1-408, FLAG-La 1-375 and FLAG-La 1-375 Q20A_Y24A_D33I plasmids were a gift of the Maraia Lab (NICHD). Briefly, SSB (UniProt P05455) was inserted between HindIII and BamHI the pFLAG-CMV2 vector (Sigma). “Uncleavable” La was produced by taking the FLAG-La 1-408 plasmid and making two point mutations at amino acids D371A and D374A, abrogating the caspase cleavage sites at the C-terminal region of the protein (Emory Integrated Genomics Core). siRNA were introduced into primary osteoclasts after 1 day of RANKL stimulation via Lipofectamine RNAiMAX (Thermo Fisher Scientific). Non-targeted (Cat #4390843) and SSB-targeted (Cat #4392420_ID:s13469) siRNA were introduced at a concentration of 5 ng/ml (Silencer Select, Ambion).
Fusion Assays: Osteoclast fusion in the culture systems was evaluated by fluorescence microscopy (Verma et al., J Biol Chem 293, 254-270, doi:10.1074/jbc.M117.809681 (2018)). Briefly, cells were fixed with 4% paraformaldehyde at timepoints of interest, permeabilized with 0.1% TRITON™ X-100 and blocked with 5% FBS. Cells were then stained with phallodin-ALEXAFLURO®488 and Hoechst to label cells' actin cytoskeleton and nuclei, respectively. […]

Molecule	binding result [1]	osteoclast fusion (fusion events in syncytia with 3+ nuclei) [2]	osteoclast bone resorption ([3]; 40 nM recombinant protein, extracellular addition, vs PBS)	bone resorption [3]	osteoclast fusion (fusion events in syncytia with 3+ nuclei) [4]	formation of multinucleated syncytia (osteoclast fusion) [4]
B1	no binding					
B2	no binding					
B3		greatly promoted	dramatically increased	promoted	greatly promoted	significantly promoted
B4				no effect	no effect	
B5		promoted formation of multinucleated osteoclasts as robustly as wild type La 1-375				significantly promoted

Source: US20240041978A1, “LA PROTEIN AS A NOVEL REGULATOR OF OSTEOCLASTOGENESIS” (The U.S.A., as Represented by the Secretary, Department of …, priority 2021, published 2024)
